This is an account of results in patent US20240025992A1 (Janssen / Centocor, published 2024).

This test has as its target T1, DL3B574.
T1 construct: also called DL3B450 scFv-Fc; not shown: wild-type IgG1 Fc domain
Briefly: SPR (ProteOn), antibody captured by anti-Fc; DLL1 at 100 nM and 1000 nM.

B1: DL3W33, Recombinant Human DLL1 ECD (Ser22-Gly540), -DI-C-6xHis (ligand)
chain: SGVFELKLQEFVNKKGLLGNRNCCRGGAGPPPCACRTFFRVCLKHYQASVSPEPPCTYGSAVTPVLGVDSFSLPDGGGADSAFSNPIRFPFGFTWPGTFSLIIEALHTDSPDDLATENPERLISRLATQRHLTVGEEWSQDLHSSGRTDLKYSYRFVCDEHYYGEGCSVFCRPRDDAFGHFTCGERGEKVCNPGWKGPYCTEPICLPGCDEQHGFCDKPGECKCRVGWQGRYCDECIRYPGCLHGTCQQPWQCNCQEGWGGLFCNQDLNYCTHHKPCKNGATCTNTGQGSYTCSCRPGYTGATCELGIDECDPSPCKNGGSCTDLENSYSCTCPPGFYGKICELSAMTCADGPCFNGGRCSDSPDGGYSCRCPVGYSGFNCEKKIDYCSSSPCSNGAKCVDLGDAYLCRCQAGFSGRHCDDNVDDCASSPCANGGTCRDGVNDFSCTCPPGYTGRNCSAPVSRCEHAPCHNGATCHERGHGYVCECARGYGGPNCQFLLPELPPGPAVVDLTEKLEGQGDIHHHHHH
notes: also called huDLL1; TPP000049465
Regarding B1, the binding result is reported as “no binding (tested: 1000 nM)”.
